Assay in all cases: fluorescence polarization
The target of test [1] is labeled peptide with N-terminal isoleucine (X…-FITC, SEQ ID NO: 833, X = I) (C-terminal FITC label).
Test [2] addresses T1, labeled peptide with N-terminal leucine (XAKLDEESILKQK-FITC, SEQ ID NO: 833, X = L).
T1 peptide: LAKLDEESILKQK-{FITC′}

The target of test [3] is labeled peptide with N-terminal valine (X…-FITC, SEQ ID NO: 833, X = V) (C-terminal FITC label).

Primed or numbered codes have the meaning given here. Ends that are not written are not given here. FITC′ = not defined here

B1: PS961 (designed binder)
chain: MPTAASATESAIEDTPAPARPEVDGRTKPKRQPRYHVVLWDDDDHTYQYVVVMLRSLFGHPPSRGYRMAKEMDTQGRVIVLTTTREHAELKRDQIHAFGRDRLLARSKGSMKASIEAEE
B1: the Kd (as a rule, the concentration at which binding is half-saturated) in test [1] is 68 nM; in test [2], 55 nM; in test [3] it was 144 nM.
